Numbering of substitutions follows the chain as printed. Names may count otherwise. Each block holds one binder with its values, some of them ahead of it.
Experiments:
[1] = target: T1, Met extracellular domain fragment (residues 25-567, sema domain and cysteine-rich domain) with C-terminal … (UniProt P08581 25-307; P08581 308-567); test: AlphaScreen competition of unlabeled ligand against biotin-NK1 binding to 6his-Met, 1 uM heparin
T1 construct: also called 6his-Met; Met sema domain
Protocol: (§1) The binding of NK1 to Met was determined by AlphaScreen assays using a hexahistidine detection kit from Perkin-Elmer. The experiment was performed using 10 nM biotin-NK1 and 6his-Met in the presence of 5 μg/ml donor and acceptor beads in a buffer containing 50 mM MOPS, pH7.4, 50 mM NaF, 0.05 mM CHAPS, and 0.1 mg/ml bovine serum albumin. Competition experiments were performed with 0.01 to 2.5 μM untagged ligand in the presence of 1 μM heparin and IC₅₀ values for NK1-Met interaction were determined from a nonlinear least square fit of the data. All experiments were duplicated or triplicated with standard errors typically less than 10% of the measurements. The Met dimerization assays were prepared using 40 nM of 6his-Met in the presence of 5 μg/ml nickel chelate donor and acceptor beads (Perkin-Elmer). The effect of Met ligands and heparin on Met dimerization was determined using 1 μM untagged ligand and 1 μM heparin.
To determine the binding affinities of the various NK1s for Met, competition experiments were performed using unlabeled NK1 proteins (FIG. 1E). […] These quantitative measurements thus establish that the affinities of the NK1 fragments are 10-50 folds weaker than the full-length HGF.

[2] = target: the molecule itself; test: crystal structure of mouse NK1
Protocol: Data were collected with a MAR 225 CCD detector at 5-ID (DND-CAT) of the Advance Photon Source (APS) located at Argonne National Laboratory. Crystals were flash frozen in liquid nitrogen after a quick wash in cryoprotectant solution containing 50 mM ammonium sulfate, 29% PEG 4000 or 1000 (w/w) (human or mouse NK1 respectively), 100 mM Tris-HCl pH 8.0, 0.5 or 0 mM βOG, 100 mM NaCl, and 15% ethylene glycol. Data was integrated and scaled with HKL2000 (Otwinowski and Minor, 1997). The human NK1 crystallized in space group P21, a=49.40 Å, b=51.81 Å, c=73.17 Å, and β=107.87°, and the mouse NK1 in P63 with a=b=86.49 Å, c=104.45 Å. The structure was solved by molecular replacement using the PDB coordinates 1NK1. Molecular replacement and model refinement were performed with CNS, where twin fraction was incorporated for the refinement for the mouse structure (Brunger et al., 1998). Manual model building was done with the program 0 (Jones et al., 1991).
To investigate the molecular mechanism by which NK1 induces Met dimerization, the crystal structure of mouse NK1 at a 2.4 Å resolution and a high resolution structure of human NK1 (1.8 Å) were determined for structural comparison.

[3] = target: T1, Met extracellular domain fragment …; test: cell-based or functional assay
[4] = target: T1, Met extracellular domain fragment …; test: AlphaScreen competition against biotin-NK1 binding to 6his-Met, 1 uM heparin
Protocol: as §1
(§2) In contrast to the Met dimerization activity, the Met binding activity of these NK1 mutants was little affected.

[5] = target: T1, Met extracellular domain fragment …; test: AlphaScreen, biotinylated NK1 on streptavidin donor beads and 6his-Met on nickel chelate acceptor beads, with heparin (sheet prints '+ 1 pM HEPARIN') [d]
Protocol: as §1
(§3) To determine the functional activity of the above purified proteins, the direct interactions of Met with the biotinylated NK1 were measured using AlphaScreen assays as illustrated in FIG. 1C. […] When NK1 interacts with Met, excitation of a laser beam at 680 nm causes the donor beads to emit single oxygen molecules to activate the fluorophores in the acceptor beads and a light signal is detected at 520-620 nm. […]

[6] = target: T1, Met extracellular domain fragment …; test: AlphaScreen, biotinylated NK1 and histidine-tagged Met, with against without heparin
Protocol: as §1, §3

[7] = target: T1, Met extracellular domain fragment …; test: SPR, MET567 amine-coupled to a CM5 chip, ligand in flow
From the text: (§4) Briefly, a CM5 chip was coated with MET567 by amine coupling chemistry. Ligand was then flowed through the cell at various concentrations to allow calculation of the dissociation equilibrium (KD).
(§5) NK1 versions of the above mutants were expressed in the yeast P. pastoris and purified to homogeneity.

[8] = target: T1, Met extracellular domain fragment …; test: SPR, MET567 amine-coupled to a CM5 chip, against wild type NK1
From the text: as §4, §5

[9] = target: T1, Met extracellular domain fragment …; test: AlphaScreen competition: unlabeled NK1 mutant against biotinylated NK1 binding to 6his-Met, with heparin [b]
Protocol: as §1, §2

IC50 [1]: ~30 nM
Met dimerization signal (AlphaScreen), 1 µM NK1 without heparin; fold label over the bar [b] [3]: 1 fold
Met dimerization signal (AlphaScreen, 6his-Met on donor and acceptor beads), 1 µM NK1 with heparin; fold label over the bar [b] [3]: 46 fold
B1: mouse NK1 (ligand)
chain: YAEGQKKRRNTLHEFKKSAKTTLTKEDPLLKIKTKKVNSADECANRCIRNRGFTFTCKAFVFDKSRKRCYWYPFNSMSSGVKKGFGHEFDLYENKDYIRNCIIGKGGSYKGTVSITKSGIKCQPWNSMIPHEHSFLPSSYRGKDLQENYCRNPRGEEGGPWCFTSNPEVRYEVCDIPQCSEV
notes: also called mouse NK1 (E. coli)
binding result [2]: binds

IC50 [1]: ~100 nM
fold weaker affinity than mouse NK1 and the human R134G mutant [1]: 3 fold
IC50 [4]: 49 nM
Met dimerization signal (AlphaScreen), 1 µM NK1 without heparin; fold label over the bar [b] [3]: 1 fold
Met dimerization signal (AlphaScreen, 6his-Met on donor and acceptor beads), 1 µM NK1 with heparin; fold label over the bar [b] [3]: 84 fold
B2: human HGF NK1 (residues 28-209), expressed in E. coli (ligand)
chain: YAEGQRKRRNTIHEFKKSAKTTLIKIDPALKIKTKKVNTADQCANRCTRNKGLPFTCKAFVFDKARKQCLWFPFNSMSSGVKKEFGHEFDLYENKDYIRNCIIGKGRSYKGTVSITKSGIKCQPWSSMIPHEHSFLPSSYRGKDLQENYCRNPRGEEGGPWCFTSNPEVRYEVCDIPQCSEV
notes: Expressed as a 6xHis-thioredoxin fusion; also called human NK1; wild type NK1

IC50 [4]: 39 nM
B6: human NK1 mutant Y124A in the R134G background (ligand)
chain: B2 chain with Y97A, R107G
notes: also called Y124A NK1; Y124A mutant

IC50 [4]: 32 nM
B10: human NK1 mutant K85A in the R134G background (ligand)
chain: B2 chain with K58A, R107G
notes: also called K85A NK1

IC50 [9]: 75 nM
B11: human NK1 mutant K85A/D123A in the R134G background (ligand)
chain: B2 chain with K58A, D96A, R107G
notes: made in the R134G background

IC50 [9]: 97 nM
B12: human NK1 mutant K85A/N127A in the R134G background (ligand)
chain: B2 chain with K58A, N100A, R107G
notes: made in the R134G background

IC50 [1]: ~30 nM
Met dimerization signal (AlphaScreen), 1 µM NK1 without heparin; fold label over the bar [b] [3]: 1 fold
Met dimerization signal (AlphaScreen, 6his-Met on donor and acceptor beads), 1 µM NK1 with heparin; fold label over the bar [b] [3]: 68 fold
B14: human NK1 mutant R134G (ligand)
chain: B2 chain with R107G
notes: Positions count on wild type NK1; also called human R134G mutant; human R134G NK1

Continued, binder first:

B3: biotinylated human NK1 (ligand)
chain: B2 chain
modifications: biotin on the N-terminal biotin acceptor peptide (coexpressed BirA)
notes: Made from the His6-thioredoxin-NK1 vector, digested with thrombin, purified on monomeric avidin; also called biotin-NK1; biotinylated NK1; not shown: 20 amino acid biotin acceptor peptide from the pDW464 plasmid (Duffy et al., 1998)
fold label beside the bar of NK1+MET with heparin (NK1-MET binding signal) [5]: 265 fold
fold increase of the NK1-Met binding signal on addition of heparin [6]: > 200 fold

B4: wild type NK1 expressed in P. pastoris (Example 7) (ligand)
chain: B2 chain
notes: Lietha 2001
Kd [7]: 183 nM

B5: NK1 double mutant LF (D123A:Y124A), P. pastoris (ligand)
chain: B2 chain with D96A, Y97A
fold reduced MET binding affinity [8]: > 100 fold

B7: NK1 double mutant LG (D123A:N127A), P. pastoris (ligand)
chain: B2 chain with D96A, N100A
fold reduced MET binding affinity [8]: > 100 fold

B8: NK1 linker mutant LE (N127A), P. pastoris (ligand)
chain: B2 chain with N100A
Kd [7]: 83 nM

B9: NK1 K1 mutant K1D (V140A:I142A), P. pastoris (ligand)
chain: B2 chain with V113A, I115A
Kd [7]: 160 nM

B13: NK1 linker mutant LC (Y124A), P. pastoris (ligand)
chain: B2 chain with Y97A
Kd [7]: 149 nM

From US20090215686A1 (published 2009)
